# Results taken from the supplement of paper PMC9233669.
# This sample holds only a part of the variants without activity.
# Experiments:
# biotinyl-Phe-oxazolone = test: self-aminoacylation, catalytic enhancement (BFO) (fold over background); higher = more active; k-Seq, kA / k0A0; sequences stand for … in GGGAAUGGAUCCACAUCUACGAAUUC…UUCACUGCAGACUUGACGAAGCUG
# Procedure, shortened: (§1)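 Catalytic enhancement equals the median kA over the uncatalyzed rate, the latter read from the low-activity peak of a bimodal Gaussian fit. Values of kA came from fitting each sequence's fraction reacted to a pseudo-first-order model, with 1000 bootstraps. Reacted RNA was captured with streptavidin and quantified by triplicate qPCR and Illumina sequencing after 90 minutes at room temperature with 2–1250 μM biotinyl-aminoacyl-oxazolone and 0.43 μM mutagenized RNA pools bearing a 21-nt variable region.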
# biotinyl-Ile-oxazolone = test: self-aminoacylation, catalytic enhancement (BIO) (fold over background); higher = more active; k-Seq, kA / k0A0; sequences stand for … in GGGAAUGGAUCCACAUCUACGAAUUC…UUCACUGCAGACUUGACGAAGCUG
# Procedure, shortened: as §1
# biotinyl-Met-oxazolone = test: self-aminoacylation, catalytic enhancement (BMO) (fold over background); higher = more active; k-Seq, kA / k0A0; sequences stand for … in GGGAAUGGAUCCACAUCUACGAAUUC…UUCACUGCAGACUUGACGAAGCUG
# Procedure, shortened: as §1
# biotinyl-Val-oxazolone = test: self-aminoacylation, catalytic enhancement (BVO) (fold over background); higher = more active; k-Seq, kA / k0A0; sequences stand for … in GGGAAUGGAUCCACAUCUACGAAUUC…UUCACUGCAGACUUGACGAAGCUG
# Procedure, shortened: as §1
# biotinyl-Leu-oxazolone = test: self-aminoacylation, catalytic enhancement (BLO) (fold over background); higher = more active; k-Seq, kA / k0A0; sequences stand for … in GGGAAUGGAUCCACAUCUACGAAUUC…UUCACUGCAGACUUGACGAAGCUG
# Procedure, shortened: as §1
# biotinyl-Trp-oxazolone = test: self-aminoacylation, catalytic enhancement (BWO) (fold over background); higher = more active; k-Seq, kA / k0A0; sequences stand for … in GGGAAUGGAUCCACAUCUACGAAUUC…UUCACUGCAGACUUGACGAAGCUG
# Procedure, shortened: as §1
Sequence,self-aminoacylation (biotinyl-Phe-oxazolone),self-aminoacylation (biotinyl-Ile-oxazolone),self-aminoacylation (biotinyl-Met-oxazolone),self-aminoacylation (biotinyl-Val-oxazolone),self-aminoacylation (biotinyl-Leu-oxazolone),self-aminoacylation (biotinyl-Trp-oxazolone)
ACUCACCUAGCUCAUCGGGUG [Fam2.2 aminoacylation ribozyme variant],0.904,2.02,2.47,1.92,2.17,2.44
AUUGCCCUGGUGAUCGAGUGA [Fam2.1 aminoacylation ribozyme variant],36.1,2.77,5.63,2.82,5.06,6
AUUACCCUGGUCUUUGAGUGA [Fam2.1 aminoacylation ribozyme variant],41.8,4.05,7.29,4.17,8.33,9.67
CCACACUUGAAGCAAUCGGUU [Fam1B.1 aminoacylation ribozyme variant],0.703,1.18,1.32,1.45,1.14,2.47
AUAACACUGGUCAUCGAGUGA [Fam2.1 aminoacylation ribozyme variant],14.7,2.83,4.84,3.06,4.62,6.89
CCACUCUUCAAGCAAUCGUUC [Fam1B.1 aminoacylation ribozyme variant],1.06,0.87,0.915,0.857,0.724,0.68
AAGUUUCCUAAUAGUCGCAAU [Fam3.1 aminoacylation ribozyme variant],4.15,2.34,1.79,1.88,2.04,2.47
CUACUUCAAACAACCGGUCUC [Fam1A.1 aminoacylation ribozyme variant],0.745,0.933,0.724,0.728,0.619,0.734
AUUACCCUGGUCAUCGAGCGC [Fam2.1 aminoacylation ribozyme variant],1.86,2.09,2.53,2.29,2.33,1.16
ACUCACUUAGGUCAUCGGGUG [Fam2.2 aminoacylation ribozyme variant],49.6,4.73,5.78,5.12,7.98,7.25
CCACACUGCAAGCAACCGGUC [Fam1B.1 aminoacylation ribozyme variant],0.966,1.53,1.49,1.79,1.25,1.07
AAGUUUGCUACCAGUCGCAAG [Fam3.1 aminoacylation ribozyme variant],0.754,1.12,1.47,0.912,0.891,0.552
CUACUUCAGACAAUCGGUAUG [Fam1A.1 aminoacylation ribozyme variant],0.586,0.719,0.636,0.704,0.717,0.529
AAGUUUGCCAAUAGUCGCCAG [Fam3.1 aminoacylation ribozyme variant],12.8,1.52,2.27,1.54,2.4,2.22
AUUACCCUUUUCAUCGAGUGA [Fam2.1 aminoacylation ribozyme variant],25.2,2.88,6.39,3.68,6.32,7.27
AAGUGUGCUAAUAGCCGCAAG [Fam3.1 aminoacylation ribozyme variant],3.94,1.81,1.49,1.48,1.2,2.61
AACUUUGCGAAUAGUCGCAAG [Fam3.1 aminoacylation ribozyme variant],4.36,2.42,2.67,2.4,2.6,2.9
AUUCACCUAGGUCGUUGGGUG [Fam2.2 aminoacylation ribozyme variant],3.95,1.35,1.42,1.2,1.52,1.23
AAUCACCUAGUUCAUCGGGUG [Fam2.2 aminoacylation ribozyme variant],16.3,3.01,3.33,3.16,2.59,3.72
AAGAUUGCUAAUAGUCGCAGG [Fam3.1 aminoacylation ribozyme variant],7.75,1.34,1.49,1.64,2.05,1.83
UUUACCCUGGCCAUCGAGUGA [Fam2.1 aminoacylation ribozyme variant],16.7,2.06,3.22,2.52,3.97,5.04
CUACUUCAAAUUAUCGGUCUG [Fam1A.1 aminoacylation ribozyme variant],0.806,1.12,1.01,1.11,0.945,0.849
ACUACCCUGGUCAUCGAUUGA [Fam2.1 aminoacylation ribozyme variant],1.59,1.01,1.05,1.02,1.16,1.16
CUACUUCACACAUUCGGUCUG [Fam1A.1 aminoacylation ribozyme variant],1.72,1.16,1.13,1.1,1.36,1.69
CUACUUCAACCAAUCUGUCUG [Fam1A.1 aminoacylation ribozyme variant],2.12,0.597,0.504,0.592,0.485,0.777
AGUCACCGAGGUCAUCGGGUG [Fam2.2 aminoacylation ribozyme variant],32.8,4.06,5.09,4.46,4.81,5.81
